Source: article PMC4277889
Where two headings read alike, the source gives them in different places.

T1: EpCAM (epithelial cell adhesion molecule) (UniProt P16422 24-265)
T1 sequence: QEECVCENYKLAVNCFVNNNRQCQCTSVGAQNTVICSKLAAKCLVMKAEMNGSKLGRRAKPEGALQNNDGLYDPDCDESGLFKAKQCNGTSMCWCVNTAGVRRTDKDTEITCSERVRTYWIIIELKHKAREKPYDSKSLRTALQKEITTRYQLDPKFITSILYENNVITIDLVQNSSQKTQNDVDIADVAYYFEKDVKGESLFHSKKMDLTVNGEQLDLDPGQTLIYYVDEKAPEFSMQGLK

B1: random sequence ACP (ssDNA)
DNA: TAAGTATATCGTGCCTGCGACTATGTTATGATGAGGCAGTCTTTAACCTGACTCGTAATA
modifications: 5' conjugated to polydiacetylene as JYK-01
B2: JYK-01 ACP (polydiacetylene conjugate) (ssDNA)
DNA: TGAAGGTTCGTTGTTTCGGTGGGTGTAGACTCTTTAGAAGAGATACAGATTTTGGGAATG
modifications: 5' amine coupled to diacetylene monomer (TCDA) in polydiacetylene particle

Experiments:
[1] = target: T1, EpCAM (epithelial cell adhesion …); assay: ACP fluorescence switching
[2] = target: T1, EpCAM (epithelial cell adhesion …); assay: ACP fluorescence switching; remark: listed apart in the source

Binder	binding result [1]	binding result [2]
B1	no binding	
B2		binds
